These results are taken from paper PMC7775534.

In this data set the target is T1, DR_1836 (DrSRP protein, Ffh homolog) (Deinococcus radiodurans R1 (ATCC 13939)) (UniProt Q9RTC9).
T1 sequence: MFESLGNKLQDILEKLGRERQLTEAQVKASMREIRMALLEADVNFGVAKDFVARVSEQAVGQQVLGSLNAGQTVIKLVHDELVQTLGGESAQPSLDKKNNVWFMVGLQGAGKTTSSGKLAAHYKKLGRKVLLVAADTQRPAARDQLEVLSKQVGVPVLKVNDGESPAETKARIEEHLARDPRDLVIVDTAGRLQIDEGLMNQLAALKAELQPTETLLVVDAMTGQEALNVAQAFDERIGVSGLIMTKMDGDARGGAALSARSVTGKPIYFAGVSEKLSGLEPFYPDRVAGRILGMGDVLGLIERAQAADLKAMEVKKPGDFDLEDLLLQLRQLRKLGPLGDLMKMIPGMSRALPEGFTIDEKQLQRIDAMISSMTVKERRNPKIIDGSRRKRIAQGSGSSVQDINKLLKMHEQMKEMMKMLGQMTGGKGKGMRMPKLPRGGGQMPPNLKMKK
Briefly: EMSA. Conditions: 20 mM Tris-HCl pH 8.0, 1 mM MgCl2, 20 mM KCl, 10 mM Na phosphate pH 8.0, 10% glycerol, 0.2 mM DTT, 37 C 1 h; 4% native PAGE, 0.5x TBE, 4 C.

Consider “GGGAGACGCCAGACGUAGGGCAGUACCCCCUUCUCUGCACAGCGCCCGCAACUGUGCUACCAUCCUUCCCGCAUUGCUGGUGCAGCGCAGCGCGGACGCCCGAACCUGGUCAGAGCCGGAAGGCAGCAGCCAUAAGGGAUGCUUUGCGGGUGCCGUUGCCUUCCGGCAAUGCUUUUUUCGUCUCUCCUCGGGGUCGCUUACGGGCGGCCCUGUUUUGUUGUGCUUAGAGCAAUUGACAGAA [Qpr6 (SRP RNA)]”, for which the binding entry was “binds”.
